This note sets out measurements from the supplement of paper PMC5998384.

The test system of data set [1] is HeLa Kyoto. As to the kind of experiment: solubility in G1/S (NP-40 vs SDS abundance) (log2 ratio); higher = more soluble. To be noted: cell cycle stage: G1/S.
Data set [2] concerns HeLa Kyoto. The data set is described as follows: solubility change mitosis vs G1/S (difference of NP-40 vs SDS log2 ratios) (log2 ratio difference); higher = more soluble in mitosis.
Data set [3] deals with HeLa Kyoto. The data set is described as follows: thermal stability score vs G1/S (z-score of summed log2 fold changes over temperatures); higher = more thermally stable than in G1/S.
Data set [4] deals with HeLa Kyoto. The data set is described as follows: melting temperature (median over replicates), in situ; higher = more thermally stable.
Setting [5] is: cell cycle stage: early G1 (4.5 h after nocodazole release).
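For melting temperature (median over replicates), in situ in this document: HeLa Kyoto cells synchronized by double thymidine or nocodazole block, proteins quantified by TMT10plex mass spectrometry, three independent biological replicates.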
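For solubility change mitosis vs G1/S (difference of NP-40 vs SDS log2 ratios) in this document: synchronized HeLa Kyoto cells (double thymidine block for G1/S, nocodazole release for mitosis), protein amounts in NP-40 versus SDS lysates quantified by mass spectrometry, three biological replicates.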
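For solubility in G1/S (NP-40 vs SDS abundance) in this document: HeLa Kyoto cells arrested at G1/S by double thymidine block, proteins quantified by TMT10plex mass spectrometry in mild NP-40 versus SDS extracts, three biological replicates.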
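For thermal stability score vs G1/S (z-score of summed log2 fold changes over temperatures) in this document: synchronized HeLa Kyoto cells, proteins quantified by TMT10plex mass spectrometry, three biological replicates, mitosis taken 0.5 h after nocodazole release, G1/S directly after double thymidine block.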

On to “MAGARAAAAAASAGSSASSGNQPPQELGLGELLEEFSRTQYRAKDGSGTGGSKVERIEKRCLELFGRDYCFSVIPNTNGDICGHYPRHIVFLEYESSEKEKDTFESTVQVSKLQDLIHRSKMARCRGRFVCPVILFKGKHICRSATLAGWGELYGRSGYNYFFSGGADDAWADVEDVTEEDCALRSGDTHLFDKVRGYDIKLLRYLSVKYICDLMVENKKVKFGMNVTSSEKVDKAQRYADFTLLSIPYPGCEFFKEYKDRDYMAEGLIFNWKQDYVDAPLSIPDFLTHSLNIDWSQYQCWDLVQQTQNYLKLLLSLVNSDDDSGLLVHCISGWDRTPLFISLLRLSLWADGLIHTSLKPTEILYLTVAYDWFLFGHMLVDRLSKGEEIFFFCFNFLKHITSEEFSALKTQRRKSLPARDGGFTLEDICMLRRKDRGSTTSLGSDFSLVMESSPGATGSFTYEAVELVPAGAPTQAAWRKSHSSSPQSVLWNRPQPSEDRLPSQQGLAEARSSSSSSSNHSDNFFRMGSSPLEVPKPRSVDHPLPGSSLSTDYGSWQMVTGCGSIQERAVLHTDSSLPFSFPDELPNSCLLAALSDRETRLQEVRSAFLAAYSSTVGLRAVAPSPSGAIGGLLEQFARGVGLRSISSNAL [MTMR14]”, for which the “solubility in G1/S (log2)” value in data set [1] was -0.145. Moreover, the “solubility change mitosis (log2)” value in data set [2] is -0.0972. Also, the figures for the thermal stability score in data set [3] (setting [5]) and in data set [3] (cell cycle stage: mitosis) were -0.497 and -0.428, respectively. For the same sequence, the melting temperature in data set [4] (cell cycle stage: G1/S) is 52.8 °C.

Regarding “MAGASVKVAVRVRPFNARETSQDAKCVVSMQGNTTSIINPKQSKDAPKSFTFDYSYWSHTSTEDPQFASQQQVYRDIGEEMLLHAFEGYNVCIFAYGQTGAGKSYTMMGRQEPGQQGIVPQLCEDLFSRVSENQSAQLSYSVEVSYMEIYCERVRDLLNPKSRGSLRVREHPILGPYVQDLSKLAVTSYADIADLMDCGNKARTVAATNMNETSSRSHAVFTIVFTQRCHDQLTGLDSEKVSKISLVDLAGSERADSSGARGMRLKEGANINKSLTTLGKVISALADMQSKKRKSDFIPYRDSVLTWLLKENLGGNSRTAMIAALSPADINYEETLSTLRYADRTKQIRCNAIINEDPNARLIRELQEEVARLRELLMAQGLSASALEGLKTEEGSVRGALPAVSSPPAPVSPSSPTTHNGELEPSFSPNTESQIGPEEAMERLQETEKIIAELNETWEEKLRKTEALRMEREALLAEMGVAVREDGGTVGVFSPKKTPHLVNLNEDPLMSECLLYHIKDGVTRVGQVDMDIKLTGQFIREQHCLFRSIPQPDGEVVVTLEPCEGAETYVNGKLVTEPLVLKSGNRIVMGKNHVFRFNHPEQARLERERGVPPPPGPPSEPVDWNFAQKELLEQQGIDIKLEMEKRLQDLENQYRKEKEEADLLLEQQRLYADSDSGDDSDKRSCEESWRLISSLREQLPPTTVQTIVKRCGLPSSGKRRAPRRVYQIPQRRRLQGKDPRWATMADLKMQAVKEICYEVALADFRHGRAEIEALAALKMRELCRTYGKPDGPGDAWRAVARDVWDTVGEEEGGGAGSGGGSEEGARGAEVEDLRAHIDKLTGILQEVKLQNSSKDRELQALRDRMLRMERVIPLAQDHEDENEEGGEVPWAPPEGSEAAEEAAPSDRMPSARPPSPPLSSWERVSRLMEEDPAFRRGRLRWLKQEQLRLQGLQGSGGRGGGLRRPPARFVPPHDCKLRFPFKSNPQHRESWPGMGSGEAPTPLQPPEEVTPHPATPARRPPSPRRSHHPRRNSLDGGGRSRGAGSAQPEPQHFQPKKHNSYPQPPQPYPAQRPPGPRYPPYTTPPRMRRQRSAPDLKESGAAV [KIF1C]”, the “solubility in G1/S (log2)” value in data set [1] was -0.0137. Moreover, the “solubility change mitosis (log2)” value in data set [2] is -0.0384. Besides, the results for the thermal stability score in data set [3] (setting [5]) and in data set [3] (cell cycle stage: mitosis) were 0.369 and 0.754, respectively. In addition, the melting temperature in data set [4] (cell cycle stage: G1/S) amounted to 48.5 °C; in data set [4] (cell cycle stage: mitosis) it was 50.2 °C.

Consider “MAGDLSAGFFMEELNTYRQKQGVVLKYQELPNSGPPHDRRFTFQVIIDGREFPEGEGRSKKEAKNAAAKLAVEILNKEKKAVSPLLLTTTNSSEGLSMGNYIGLINRIAQKKRLTVNYEQCASGVHGPEGFHYKCKMGQKEYSIGTGSTKQEAKQLAAKLAYLQILSEETSVKSDYLSSGSFATTCESQSNSLVTSTLASESSSEGDFSADTSEINSNSDSLNSSSLLMNGLRNNQRKAKRSLAPRFDLPDMKETKYTVDKRFGMDFKEIELIGSGGFGQVFKAKHRIDGKTYVIKRVKYNNEKAEREVKALAKLDHVNIVHYNGCWDGFDYDPETSDDSLESSDYDPENSKNSSRSKTKCLFIQMEFCDKGTLEQWIEKRRGEKLDKVLALELFEQITKGVDYIHSKKLIHRDLKPSNIFLVDTKQVKIGDFGLVTSLKNDGKRTRSKGTLRYMSPEQISSQDYGKEVDLYALGLILAELLHVCDTAFETSKFFTDLRDGIISDIFDKKEKTLLQKLLSKKPEDRPNTSEILRTLTVWKKSPEKNERHTC [EIF2AK2]”, for which the “solubility in G1/S (log2)” value in data set [1] was -0.283. Moreover, in data set [2], the “solubility change mitosis (log2)” value is -0.0511. The thermal stability score in data set [3] (setting [5]) is 1.01; in data set [3] (cell cycle stage: mitosis), 3.12. In addition, the melting temperature in data set [4] (cell cycle stage: G1/S) turned out to be 47.1 °C; in data set [4] (cell cycle stage: mitosis), 48 °C.

Take “MAGFWVGTAPLVAAGRRGRWPPQQLMLSAALRTLKHVLYYSRQCLMVSRNLGSVGYDPNEKTFDKILVANRGEIACRVIRTCKKMGIKTVAIHSDVDASSVHVKMADEAVCVGPAPTSKSYLNMDAIMEAIKKTRAQAVHPGYGFLSENKEFARCLAAEDVVFIGPDTHAIQAMGDKIESKLLAKKAEVNTIPGFDGVVKDAEEAVRIAREIGYPVMIKASAGGGGKGMRIAWDDEETRDGFRLSSQEAASSFGDDRLLIEKFIDNPRHIEIQVLGDKHGNALWLNERECSIQRRNQKVVEEAPSIFLDAETRRAMGEQAVALARAVKYSSAGTVEFLVDSKKNFYFLEMNTRLQVEHPVTECITGLDLVQEMIRVAKGYPLRHKQADIRINGWAVECRVYAEDPYKSFGLPSIGRLSQYQEPLHLPGVRVDSGIQPGSDISIYYDPMISKLITYGSDRTEALKRMADALDNYVIRGVTHNIALLREVIINSRFVKGDISTKFLSDVYPDGFKGHMLTKSEKNQLLAIASSLFVAFQLRAQHFQENSRMPVIKPDIANWELSVKLHDKVHTVVASNNGSVFSVEVDGSKLNVTSTWNLASPLLSVSVDGTQRTVQCLSREAGGNMSIQFLGTVYKVNILTRLAAELNKFMLEKVTEDTSSVLRSPMPGVVVAVSVKPGDAVAEGQEICVIEAMKMQNSMTAGKTGTVKSVHCQAGDTVGEGDLLVELE [PCCA]”: in data set [1], the “solubility in G1/S (log2)” value was 0.0361. Also, the “solubility change mitosis (log2)” value in data set [2] is -0.122. Moreover, the thermal stability score in data set [3] (setting [5]) was -0.863; in data set [3] (cell cycle stage: mitosis), -1.1. In addition, the melting temperature amounted to 53.7 °C in data set [4] (cell cycle stage: G1/S) and 53.1 °C in data set [4] (cell cycle stage: mitosis).

Consider “MAGGGAGDPGLGAAAAPAPETREHLFKVLVIGELGVGKTSIIKRYVHQLFSQHYRATIGVDFALKVLNWDSRTLVRLQLWDIAGQERFGNMTRVYYKEAVGAFVVFDISRSSTFEAVLKWKSDLDSKVHLPNGSPIPAVLLANKCDQNKDSSQSPSQVDQFCKEHGFAGWFETSAKDNINIEEAARFLVEKILVNHQSFPNEENDVDKIKLDQETLRAENKSQCC [RAB32]”, for which the “solubility in G1/S (log2)” value in data set [1] was -0.00216. Moreover, the “solubility change mitosis (log2)” value in data set [2] was -0.0818. The thermal stability score was determined as 4.46 in data set [3] (setting [5]) and 2.79 in data set [3] (cell cycle stage: mitosis). Besides, the melting temperature in data set [4] (cell cycle stage: G1/S) came to 51.8 °C; in data set [4] (cell cycle stage: mitosis) it was 53.4 °C.
